Laboratory results from publication PMC2646509.

Target: T1, PrfA L140F L140F (Listeria monocytogenes (NF-L1166)) (UniProt P22262)
T1 sequence: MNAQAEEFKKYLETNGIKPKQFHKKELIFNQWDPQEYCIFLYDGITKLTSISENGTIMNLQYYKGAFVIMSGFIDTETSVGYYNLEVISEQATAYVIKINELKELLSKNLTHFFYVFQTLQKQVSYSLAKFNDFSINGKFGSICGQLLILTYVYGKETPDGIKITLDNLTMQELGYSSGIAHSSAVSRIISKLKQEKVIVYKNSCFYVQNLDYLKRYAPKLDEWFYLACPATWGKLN
Assay: EMSA

## GATGCTTCTAAAAAAGTTGCTGAAGCTTGGGAAGCAGTTGGGGTTAACTGATTAACAAATGTTAGAGAAAAATTAATTCTCCAAGTGATATTCTTAAAATAATTCATGAATA (double strand) [actA promoter]
  binding: binds
